The source of these data is patent US20180057604A1 (Genentech, published 2018).

Changes are numbered by the printed parent chain. Names and notes keep the numbering of the source. Read-outs that look alike come from different tables or passages of the source. Where only a bound is given, the exact number is not on record here.

In experiment [1] the target is T1, murine BACE1 ECD.
T1 construct: analyte of the Octet assay (200 nM) and enzyme of the first short substrate assay
Kind of experiment: Octet, pH 5.0.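 Note: antibodies captured on anti-human capture sensor tips, dissociation monitored in PBS with BSA buffer, kinetics fitted with a one-to-one binding model.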

In experiment [2] the target is T2, human BACE1 ECD.
T2 construct: analyte of the Octet assay (200 nM) and enzyme of the first short substrate assay; also called human BACE1 extracellular domain
Kind of experiment: Octet, pH 5.0.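 Note: antibodies captured on anti-human capture sensor tips, dissociation monitored in PBS with BSA buffer, kinetics fitted with a one-to-one binding model.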

Experiment [3] concerns the target T1, murine BACE1 ECD. As to the kind of experiment: Octet, pH 7.5.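 Note: antibodies captured on anti-human capture biosensor tips, dissociation followed in PBS with BSA buffer, kinetics fitted with a one-to-one binding model.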
Experiment [4] deals with T2, human BACE1 ECD. Kind of experiment: Octet, pH 7.5.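 Note: antibodies captured on anti-human capture biosensor tips, dissociation followed in PBS with BSA buffer, kinetics fitted with a one-to-one binding model.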
Experiment [5] addresses T3, human BACE1 (R&D Systems) (human, UniProt P56817).
T3 construct: recombinant, commercial (R&D Systems)
Kind of experiment: SPR (Biacore).

Experiment [6] addresses T4, BACE1 in primary mouse cortical neurons (mouse, UniProt P56818 46-501). Kind of experiment: cell-based or functional assay.
Experiment [7] deals with T1, murine BACE1 ECD. As to the kind of experiment: cell-based or functional assay.
The target in experiment [8] is T2, human BACE1 ECD. As to the kind of experiment: cell-based or functional assay.
The target of experiment [9] is T1, murine BACE1 ECD. Kind of experiment: Octet, pH 7.5, second run.
Experiment [10] concerns the target T2, human BACE1 ECD. As to the kind of experiment: Octet, pH 7.5, second run.
The target in experiment [11] is T1, murine BACE1 ECD. Kind of experiment: Octet, pH 5.0, second run.
Experiment [12] has as its target T2, human BACE1 ECD. As to the kind of experiment: Octet, pH 5.0, second run.
Experiment [13] has as its target BACE1 (HTRF long substrate and FRET short substrate assays of Example 9D). As to the kind of experiment: cell-based or functional assay.
The target of experiment [14] is T4, BACE1 in primary mouse cortical neurons. As to the kind of experiment: cell-based or functional assay. This is another data set of the same source.
For experiment [15] the target is unchanged. As to the kind of experiment: cell-based or functional assay. This is another data set of the same source.
Experiment [16] addresses T5, cyno TfR extracellular domain (analogous construct to human TfR ecd) (cynomolgus monkey, UniProt Q5RDH6 87-760 (Pongo abelii entry)).
T5 construct: also called cynoTfR ecd
T5 chain: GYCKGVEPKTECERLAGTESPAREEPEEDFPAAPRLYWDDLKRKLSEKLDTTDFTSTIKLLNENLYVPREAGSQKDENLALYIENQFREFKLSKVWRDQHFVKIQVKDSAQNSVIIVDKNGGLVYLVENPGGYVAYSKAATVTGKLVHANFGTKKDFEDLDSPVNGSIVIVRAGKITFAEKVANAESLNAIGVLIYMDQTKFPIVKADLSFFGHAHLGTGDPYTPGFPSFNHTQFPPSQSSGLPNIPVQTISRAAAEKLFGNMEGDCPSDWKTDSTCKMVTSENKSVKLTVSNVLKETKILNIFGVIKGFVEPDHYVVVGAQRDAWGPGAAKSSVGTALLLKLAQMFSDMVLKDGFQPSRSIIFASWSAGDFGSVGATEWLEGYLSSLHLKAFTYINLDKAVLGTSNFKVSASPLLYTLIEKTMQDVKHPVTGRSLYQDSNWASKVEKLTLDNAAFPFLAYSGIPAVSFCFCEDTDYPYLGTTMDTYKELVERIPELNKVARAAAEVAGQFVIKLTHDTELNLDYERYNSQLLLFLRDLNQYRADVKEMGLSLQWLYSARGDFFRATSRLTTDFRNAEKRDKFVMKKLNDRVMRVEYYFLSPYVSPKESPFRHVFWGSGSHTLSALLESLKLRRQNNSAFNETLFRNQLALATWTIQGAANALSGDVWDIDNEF
Kind of experiment: SPR steady state, IgG.

Experiment [17] concerns the target T6, human TfR extracellular domain with N-terminal His tag (human, UniProt P02786 89-760).
T6 construct: Biotinylated in some assays; also called huTfR; HuTfR
As to the kind of experiment: SPR steady state, IgG.

The target of experiment [18] is T5, cyno TfR extracellular domain …. Kind of experiment: ELISA, IgG.
The target of experiment [19] is T6, human TfR extracellular domain with …. Kind of experiment: ELISA, IgG.
For experiment [20], the target named is T5, cyno TfR extracellular domain …. Kind of experiment: SPR SCK 1:1 fit, IgG.
The target in experiment [21] is T6, human TfR extracellular domain with …. As to the kind of experiment: SPR SCK 1:1 fit, IgG.
Experiment [22] deals with T5, cyno TfR extracellular domain …. Kind of experiment: SPR, Fab.
For experiment [23], the target named is T6, human TfR extracellular domain with …. Kind of experiment: SPR, Fab.
The target of experiment [24] is T5, cyno TfR extracellular domain …. Kind of experiment: SPR, KD on cyno TfR over KD on human TfR.
Experiment [25] has the same target. Kind of experiment: SPR, TfR captured by anti-His, Fab injected.
Experiment [26] deals with T6, human TfR extracellular domain with …. As to the kind of experiment: SPR, TfR captured by anti-His, Fab injected.

T6 sequence (P02786 89-760 G142S): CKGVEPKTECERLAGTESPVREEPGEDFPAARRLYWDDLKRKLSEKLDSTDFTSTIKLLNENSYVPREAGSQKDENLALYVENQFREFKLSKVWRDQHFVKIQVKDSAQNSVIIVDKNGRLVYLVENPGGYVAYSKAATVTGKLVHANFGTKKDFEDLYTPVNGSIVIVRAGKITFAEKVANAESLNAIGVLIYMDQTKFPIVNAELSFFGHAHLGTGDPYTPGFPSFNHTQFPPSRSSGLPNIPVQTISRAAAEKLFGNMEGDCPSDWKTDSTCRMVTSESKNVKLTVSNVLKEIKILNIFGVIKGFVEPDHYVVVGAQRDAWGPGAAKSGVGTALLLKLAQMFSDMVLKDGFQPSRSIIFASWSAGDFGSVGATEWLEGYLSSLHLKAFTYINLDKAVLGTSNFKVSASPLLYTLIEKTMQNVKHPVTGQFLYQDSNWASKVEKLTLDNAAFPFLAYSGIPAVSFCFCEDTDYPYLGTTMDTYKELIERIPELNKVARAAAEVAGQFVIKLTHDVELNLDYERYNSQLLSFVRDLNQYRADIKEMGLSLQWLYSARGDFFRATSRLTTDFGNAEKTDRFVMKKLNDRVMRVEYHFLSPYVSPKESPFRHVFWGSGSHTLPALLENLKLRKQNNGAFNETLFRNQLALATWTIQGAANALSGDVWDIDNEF
T1 sequence (single chain, as listed by the source limits assumed): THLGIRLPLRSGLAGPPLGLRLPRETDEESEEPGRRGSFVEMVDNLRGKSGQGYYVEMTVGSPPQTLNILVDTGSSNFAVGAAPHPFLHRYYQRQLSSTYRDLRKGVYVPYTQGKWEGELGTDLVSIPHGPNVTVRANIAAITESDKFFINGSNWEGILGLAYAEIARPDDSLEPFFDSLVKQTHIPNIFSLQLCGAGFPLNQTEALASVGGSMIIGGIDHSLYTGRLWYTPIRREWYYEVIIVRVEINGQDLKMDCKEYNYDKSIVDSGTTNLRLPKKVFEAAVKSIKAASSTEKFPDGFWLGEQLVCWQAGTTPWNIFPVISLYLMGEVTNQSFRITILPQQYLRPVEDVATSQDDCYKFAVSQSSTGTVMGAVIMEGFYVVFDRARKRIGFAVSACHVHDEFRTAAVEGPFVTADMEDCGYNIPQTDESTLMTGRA
T2 sequence (single chain, as listed by the source limits assumed): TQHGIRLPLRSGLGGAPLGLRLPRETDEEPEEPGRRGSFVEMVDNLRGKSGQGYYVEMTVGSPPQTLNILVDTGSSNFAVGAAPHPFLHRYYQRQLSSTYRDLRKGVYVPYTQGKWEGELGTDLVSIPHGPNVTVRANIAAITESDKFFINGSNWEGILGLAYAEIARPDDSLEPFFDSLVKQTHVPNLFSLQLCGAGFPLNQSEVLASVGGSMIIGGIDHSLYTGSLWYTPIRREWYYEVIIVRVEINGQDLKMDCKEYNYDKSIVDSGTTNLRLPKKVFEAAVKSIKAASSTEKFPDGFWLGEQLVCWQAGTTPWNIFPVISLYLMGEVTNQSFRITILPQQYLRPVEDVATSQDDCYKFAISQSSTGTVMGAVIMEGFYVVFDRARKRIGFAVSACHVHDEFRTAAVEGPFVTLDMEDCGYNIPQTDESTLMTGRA
T4 sequence (P56818 46-501): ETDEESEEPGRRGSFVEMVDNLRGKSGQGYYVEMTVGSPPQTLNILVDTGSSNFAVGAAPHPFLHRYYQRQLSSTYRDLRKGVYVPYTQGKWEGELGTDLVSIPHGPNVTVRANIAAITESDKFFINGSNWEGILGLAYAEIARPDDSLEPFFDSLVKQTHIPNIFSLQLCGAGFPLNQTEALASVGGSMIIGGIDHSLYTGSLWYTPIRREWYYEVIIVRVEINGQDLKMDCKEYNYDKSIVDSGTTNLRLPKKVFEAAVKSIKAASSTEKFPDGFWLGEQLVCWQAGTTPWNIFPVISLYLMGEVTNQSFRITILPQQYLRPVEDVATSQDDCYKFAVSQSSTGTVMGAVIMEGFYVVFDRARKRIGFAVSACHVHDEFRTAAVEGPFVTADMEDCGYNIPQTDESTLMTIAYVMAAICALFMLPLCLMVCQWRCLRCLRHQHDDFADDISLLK
T3 sequence (P56817 22-457 limits assumed): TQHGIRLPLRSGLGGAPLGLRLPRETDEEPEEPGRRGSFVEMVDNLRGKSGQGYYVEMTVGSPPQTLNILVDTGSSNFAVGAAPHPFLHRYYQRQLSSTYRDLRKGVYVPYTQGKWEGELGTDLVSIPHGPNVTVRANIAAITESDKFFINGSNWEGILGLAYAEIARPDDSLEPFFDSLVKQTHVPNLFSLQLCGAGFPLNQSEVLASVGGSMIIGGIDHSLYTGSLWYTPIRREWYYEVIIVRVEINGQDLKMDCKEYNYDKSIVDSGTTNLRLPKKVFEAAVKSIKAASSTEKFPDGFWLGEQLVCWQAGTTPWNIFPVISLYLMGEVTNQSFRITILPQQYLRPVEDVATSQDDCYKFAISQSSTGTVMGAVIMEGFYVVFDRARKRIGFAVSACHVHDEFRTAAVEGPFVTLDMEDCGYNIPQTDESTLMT

B1: 5894 (antibody, V domains shown)
VH: QVQLVQSGAEVKKPGSSVKVSCKASGGTFSGYAISWVRQAPGQGLEWMGNIIPGFGTANYAQKFQGRVTITADESTSTAYMELSSLRSEDTAVYYCARSGGTKYGMLDVWGQGTMVTVSS
VL: EIVMTQSPATLSVSPGERATLSCRASQSVGSNLAWYQQKPGQAPRLLIYGASTRATGIPARFSGSGSGTEFTLTISSLQSEDFAVYYCQQLYTWPPRTFGGGTKVEIK
notes: anti-BACE1 IgG
In the case of B1, the dissociation constant (Kd) in experiment [1] was 0.65 nM; in experiment [2], 0.3 nM; in experiment [3], 0.86 nM; in experiment [4], 0.27 nM; in [5], 2.95 nM; in [9], < 0.4 nM. Also, the Kd in experiment [10] was < 0.38 nM; in experiment [11], < 0.38 nM; in [12], < 0.27 nM. The “IC50, Abeta x-40 in mouse cortical neurons” value in experiment [6] was found to be 6.48 nM. Besides, the “IC50, Abeta x-40 in mouse cortical neurons (5894*, second run)” value in [6] was found to be 5.43 nM. Moreover, in experiment [6], the “maximal % inhibition of Abeta x-40” value is 78%. For the same molecule, the “% inhibition of BACE1 activity, short FRET substrate” value in [7] and in experiment [8] was 69% in each case. Moreover, in experiment [13], the “EC50, FRET short substrate” value was 8.58 nM. In [13], the “EC50, HTRF long substrate” value stood at 1.79 nM.

B2: bispecific antibody TfR^2/6266 (bispecific antibody, V domains shown)
VH 1: EVQLVQSGAEVKKPGASVKVSCKASGYTFTSYWMHWVRQAPGQRLEWIGEINPTNGRTNYIEKFKSRATLTVDKSASTAYMELSSLRSEDTAVYYCARGTRAYHYWGQGTMVTVSS
VL 1: DIQMTQSPSSLSASVGDRVTITCRASDNLYSNLAWYQQKPGKSPKLLVYDATNLADGVPSRFSGSGSGTDYTLTISSLQPEDFATYYCQHFAGTPLTFGQGTKVEIK
VH 2: B1 VH with Q1E, F29L, A33G, I34V
VL 2: B1 VL with G30S, Y92I, T93L
For B2, the “IC50, inhibition of Abeta x-40 production in primary mouse cortical neurons” value in experiment [14] is 1.7 nM.

B3: 5905 (antibody, V domains shown)
VH: QLQLQESGPGLVKPSETLSLTCTVSGGSISWSSYYWSWIRQPPGKGLEWIGSIYRSGRTYYNPSLKSRVTISVDTSKNQFSLKLSSVTAADTAVYYCARVGHGISYFDLWGRGTLVTVSS
VL: B1 VL with M4L, V13L, G30S, N32Y, G50D, T53K, E70D, Q79E, S80P, L91V
notes: anti-BACE1 IgG
As for B3, the dissociation constant Kd in [1] turned out to be 1.1 nM; in [2] it was 1.1 nM; in experiment [3], 1.4 nM; in experiment [4] it was 1.3 nM; in experiment [5], 3.53 nM; in experiment [9], 0.4 nM. Further, the Kd came to 0.51 nM in experiment [10], 0.38 nM in experiment [11] and 0.27 nM in [12]. For the same molecule, in [15], the “IC50, Abeta x-40 in mouse cortical neurons” value turned out to be 0.33 nM. For the same molecule, in experiment [15], the “IC50, Abeta x-40 in mouse cortical neurons (5905*, second run)” value is 0.83 nM. The “maximal % inhibition of Abeta x-40” value in [15] stood at 65%. The figures for the “% inhibition of BACE1 activity, short FRET substrate” value in experiment [7] and in experiment [8] were 72% and 65%, respectively. For the same molecule, in [13], the “EC50, FRET short substrate” value is 1.33 nM. The “EC50, HTRF long substrate” value in [13] turned out to be 3.91 nM.

B4: G93A (antibody, V domains shown)
VH: B2 VH 1
VL: B2 VL 1 with A92W, G93A
notes: also called 15G11.v5 G93A (CDR-L3) IgG
Consider B4, for which the equilibrium dissociation constant (Kd) in experiment [16] came out at 412 nM; in experiment [17] it was 150 nM; in [20], 61 nM; in experiment [21], 40 nM. For the same molecule, the EC50 in [18] was 0.0508 µg/mL; in experiment [19], 0.0145 µg/mL.

B5: G93A (Fab, V domains shown)
VH: B2 VH 1
VL: B2 VL 1 with A92W, G93A
notes: also called 15G11.v5 G93A (CDR-L3) Fab
On to B5, for which the Kd in experiment [22] came out at 1300 nM; in experiment [23], 245 nM.

B6: Hu15G11.HC34A Fab (Fab, V domains shown)
VH: B2 VH 1 with M34A
VL: B2 VL 1 with A92W
notes: Fab
As for B6, the Cy/hu ratio in experiment [24] worked out at 4.6. In experiment [25], this molecule had a dissociation rate constant (koff) of 0.0099 s⁻¹ and a kon of 304000 M⁻¹ s⁻¹. Also, in [26], the koff was determined as 0.00403 s⁻¹ and the association rate constant (kon) was determined as 564000 M⁻¹ s⁻¹.

B7: P95A (antibody, V domains shown)
VH: B2 VH 1
VL: B2 VL 1 with A92W, P95A
notes: also called 15G11.v5 P95A (CDR-L3) IgG
Turning to B7, the dissociation constant (Kd) in experiment [16] turned out to be 258 nM; in [17], 94 nM; in experiment [20], 57 nM; in experiment [21], 29 nM. The concentration giving a half-maximal response (EC50) came out at 0.0406 µg/mL in [18] and 0.0106 µg/mL in experiment [19].

B8: Q89A (antibody, V domains shown)
VH: B2 VH 1
VL: B2 VL 1 with Q89A, A92W
notes: also called 15G11.v5 Q89A (CDR-L3) IgG
B8: the dissociation constant (Kd) in [16] came out at 591 nM; in experiment [17] it was 212 nM; in [20] it was 268 nM; in experiment [21], 125 nM. For the same molecule, the values for the EC50 in experiment [18] and in experiment [19] were 0.506 µg/mL and 0.03 µg/mL, respectively.

B9: P95A (Fab, V domains shown)
VH: B2 VH 1
VL: B2 VL 1 with A92W, P95A
notes: also called 15G11.v5 P95A (CDR-L3) Fab
For B9, the Kd in experiment [22] turned out to be 886 nM; in experiment [23], 170 nM.

B10: Hu15G11.HC53A Fab (Fab, V domains shown)
VH: B2 VH 1 with T54A
VL: B2 VL 1 with A92W
notes: Fab; also called 15G11.53A Fab
As for B10, the Cy/hu ratio in experiment [24] turned out to be 4. In experiment [25], this molecule gave an off-rate (koff) of 0.025 s⁻¹ and a kon of 484000 M⁻¹ s⁻¹. In experiment [26], the koff is 0.0115 s⁻¹ and the kon amounted to 890000 M⁻¹ s⁻¹.

B11: Hu15G11.HC51A Fab (Fab, V domains shown)
VH: B2 VH 1 with I51A
VL: B2 VL 1 with A92W
notes: Fab
Regarding B11, the Cy/hu ratio in [24] was found to be 4.4. In experiment [25], this molecule gave an off-rate (koff) of 0.0329 s⁻¹ and a kon of 313000 M⁻¹ s⁻¹. In [26], this molecule registered a dissociation rate constant (koff) of 0.0104 s⁻¹ and an association rate constant (kon) of 433000 M⁻¹ s⁻¹.
